For experiment [1], the target named is T1, human IL-4R alpha on cells (TF-1 cells; human peripheral blood mononuclear cells) (human, UniProt P24394 26-825). In words: cell-based or functional assay.
Another experiment concerns the target T2, hIL-4R alpha-ECD-Fc (human, UniProt P24394 26-232).
T2 construct: range 26-232; hFc at the C-terminus of the ECD; also called hIL4R alpha-ECD-hFc; hIL-4R alpha-Fc antigen
In words: ELISA, plate coated with 1 ug/ml hIL-4R alpha-ECD-Fc. Here is the method:
The titer was tested by ELISA: an ELISA plate was coated with the hIL-4R alpha ECD-Fc antigen at a concentration of 1 μg/ml, 100 μl per well, and coated overnight at 4° C. The plates were washed twice with PBST (PBS containing 0.5% Tween-20) and then pat-dried. Each well was blocked with 200 μl of coating solution containing 1% BSA, blocked at room temperature for 4 h, pat-dried, and stored in a refrigerator at −20° C. for later use. During testing, 100 μl of mouse serum at different concentrations was added to each well of the ELISA plate, with two replicate wells, for incubation at room temperature for 1.5 h. The wells were washed with PBST for 3 times and then pat-dried. Then 100 μl of rabbit anti-mouse IgG labeled with HRP diluted with PBST by 1:10000 (purchased from Sigma) was added and the plates were incubated at room temperature for 1 h. The wells were washed with PBST for 3 times and then pat-dried. Then 100 μl of chromogenic solution was added to each well (an ELISA chromogenic solution A was mixed with a chromogenic solution B at a volume ratio of 1:1 before use) for a chromogenic reaction, and then 100 μl of 2M H2SO4 stopping solution was added to each well to terminate the reaction. The OD value of each well was immediately measured at 450 nm with a microplate reader (Molecular Device).
Optimized murine anti-hIL-4R alpha monoclonal antibodies were purified by a ProteinG affinity chromatography column and quantified by BCA. The EC50 of anti-hIL-4R alpha monoclonal antibodies binding to hIL-4R alpha was tested by ELISA. The testing method is as described in Example 3. An ELISA plate was coated with 1 μg/ml of hIL-4R alpha-ECD-Fc antigen, and then murine anti-hIL-4R alpha monoclonal antibodies at different concentrations were added for testing.
Background: An ELISA detects its analyte on a solid surface through an enzyme-linked reagent.

For experiment [2], the target named is T1, human IL-4R alpha on cells (TF-1 cells; …). Description: cell-based or functional assay. The source holds these as a separate data set.
Another experiment deals with T3, hIL-4R alpha-ECD-Flag (human, UniProt P24394 26-232).
T3 construct: range 26-232; Analyte of the Biacore experiment
In words: SPR, Biacore T200, antibody captured on Protein-A chip, hIL-4R alpha-ECD-Flag as analyte. The procedure: The affinity of six purified humanized antibodies was detected by Biacore T200 (GE healthcare), with the reference antibody Dupilumab as a control. The specific experimental method was as follows: a Protein-A CMS sensor chip (GE healthcare) was used, with FC1 (Flow cell 1) as a reference channel, and FC2 (Flow cell 2) as a sample channel. Humanized antibodies or control antibody were captured in the FC2 channel, and then hIL-4R alpha-ECD-Flag at different concentrations was injected. Cycling conditions were as follows: an analyte was injected into all channels of FCs at 50 μl/min for 4 min, with a dissociation time of 20 min, and 6M guanidine hydrochloride (Sinopharm Chemical Reagent Co., Ltd.) was injected at a rate of 10 μl/min for 30 s for surface regeneration. Then, signal differences and affinity for interaction between captured antibodies and non-captured antibodies were calculated by Biacore T200 Evaluation Software Ver 1.0.

Changes are numbered by the printed parent chain.

B1: murine anti-hIL-4R alpha monoclonal antibody 54 (antibody, V domains shown)
VH: EVQLQQSGPELVKPGASVKIPCKASGYTFTDYNMDWVKQSHGKSLEWIGDINPNNGNILFNQKFKGKATLTVDKSSSTAYVELRSLTSEDTAVYYCGRGGLRRRGFMDYWGQGTSVTVSS
VL: QIVLSQSPAILSASPGEKVTMTCRASSSVSYMHWYQQKPGSSPKPWIYAASNLASGVPARFSGSGSGTSYSLTISRVEAEDAATYYCQQWSSNPPTFGGGTKLEIK
notes: Mouse hybridoma antibody purified on ProteinG
As usually defined, the EC50 is the concentration needed to bring the measured effect to its halfway point. Regarding B1, the “IC50 (ng/ml), inhibition of IL-4-induced TF-1 proliferation” value in experiment [1] amounted to 57 ng/mL. For the same molecule, the 50% effective concentration (EC50) in the experiment with hIL-4R alpha-ECD-Fc stood at 0.0099 µg/mL.

B2: murine anti-hIL-4R alpha monoclonal antibody 57 (antibody, V domains shown)
VH: B1 VH
VL: B1 VL
notes: as for B1
For B2, in experiment [1], the “IC50 (ng/ml), inhibition of IL-4-induced TF-1 proliferation” value was determined as 23.6 ng/mL. The EC50 with hIL-4R alpha-ECD-Fc came out at 0.0079 µg/mL.

B3: murine anti-hIL-4R alpha monoclonal antibody 75 (antibody, V domains shown)
VH: B1 VH
VL: B1 VL
notes: as for B1
B3: in experiment [1], the “IC50 (ng/ml), inhibition of IL-4-induced TF-1 proliferation” value is 29 ng/mL. The EC50 with hIL-4R alpha-ECD-Fc stood at 0.0129 µg/mL.

B4: murine anti-hIL-4R alpha monoclonal antibody 83 (antibody, V domains shown)
VH: B1 VH with H41R, D50T, N57D, I58T, L59M, F60Y, G66D, S77T, V81M, Q112R
VL: B1 VL with S30I, M32I, A50I, S71F, A79V, S92V
notes: as for B1
Regarding B4, the “IC50 (ng/ml), inhibition of IL-4-induced TF-1 proliferation” value in experiment [1] is 36.6 ng/mL. A half-maximal response in the experiment with hIL-4R alpha-ECD-Fc (EC50) required 0.0123 µg/mL.

B5: murine anti-hIL-4R alpha monoclonal antibody 64 (antibody, V domains shown)
VH: B1 VH with P21S, D50T, I51T, N57G, I58T, F60Y, V81M, G97A, M107V
VL: B1 VL with S30N, M32L, A50T
notes: as for B1
Regarding B5, in experiment [1], the “IC50 (ng/ml), inhibition of IL-4-induced TF-1 proliferation” value came out at 43.7 ng/mL. Besides, a half-maximal response with hIL-4R alpha-ECD-Fc (EC50) required 0.0106 µg/mL.

B6: murine anti-hIL-4R alpha monoclonal antibody 59 (antibody, V domains shown)
VH: EVQLVESGGGLVKPGGSLKLSCAASGFTFSDYGIHWVRQAPDKGLEWVAYIRSDSSIIHYADTVKGRFTISRDNAKNTLFLQMTSLRSEDTAMYYCTRGRDRGYFDYWGQGTTLTVSS
VL: QIVLTQSPALMSASPGEKVTMTCSASSSVSYMYWYQQKPRSSPKPWIYLTSNLASGVPARFSGSGSGTSYSLTISSMEAEDAATYYCQQWTSIPFTFGSGTKLEIK
notes: as for B1
Take B6: the “IC50 (ng/ml), inhibition of IL-4-induced TF-1 proliferation” value in experiment [1] was 43.7 ng/mL. In addition, the EC50 with hIL-4R alpha-ECD-Fc was 0.0117 µg/mL.

B7: humanized anti-hIL-4R alpha monoclonal antibody 59-Hu (antibody, human IgG4 S228P, kappa, V domains shown)
VH: EVQLVESGGGLVQPGGSLRLSCAASGFTFSDYGIHWVRQAPGKGLEWVSYIRSDSSIIHYADTVKGRFTISRDNAKNSLYLQMNSLRAEDTAVYYCARGRDRGYFDYWGQGTLVTVSS
VL: EIVLTQSPATLSLSPGERATLSCSASSSVSYMYWYQQKPGQAPRPWIYLTSNLASGVPARFSGSGSGTDFTLTISSLEPEDFAVYYCQQWTSIPFTFGQGTKVEIKR
notes: Humanized, human IgG4 constant region; expressed in HEK293, purified on ProteinA
By Kd is commonly meant the equilibrium constant for the complex coming apart. High values mean weaker binding, low ones tighter binding. By koff is commonly meant the rate constant with which the complex falls apart. The low end stands for slow dissociation, the high end for fast dissociation. The term kon denotes the rate constant with which the complex forms. Lower therefore signals slow association. As to B7, in experiment [2], the “IC50 (ng/ml), inhibition of IL-4-induced TF-1 cell proliferation” value was determined as 296 ng/mL. In the experiment with hIL-4R alpha-ECD-Flag, this molecule showed a Kd of 250 pM, a koff of 0.000284 s⁻¹ and a kon of 1.14e+06 M⁻¹ s⁻¹.

B8: humanized anti-hIL-4R alpha monoclonal antibody 236-Hu (antibody, human IgG4 S228P, kappa, V domains shown)
VH: QVQLVQSGAEVKKPGASVKVSCKASGYTFTDYNVDWVRQAPGQGLEWIGTINPNNGGILSNQKFKGRVTITVDTSASTAYMELSSLRSEDTAVYYCGRGGLRRRGFMDYWGQGTLVTVSS
VL: B7 VL with S24R, S30I, M32I, Y33H, L49A, T50A, A54P, T91S, I93N, F95P
notes: as for B7
B8: the “IC50 (ng/ml), inhibition of IL-4-induced TF-1 cell proliferation” value in experiment [2] stood at 54.6 ng/mL. In the experiment with hIL-4R alpha-ECD-Flag, this molecule yielded an equilibrium dissociation constant (Kd) of 173 pM, a koff of 0.000255 s⁻¹ and a kon of 1.48e+06 M⁻¹ s⁻¹.

B9: humanized anti-hIL-4R alpha monoclonal antibody 29-Hu (antibody, human IgG4 S228P, kappa, V domains shown)
VH: EVQLVESGGGLVQPGGSLRLSCAASGFTFSDYGMHWVRQAPGKGLEWVAYINSGSSKIYHADTVKGRFTISRDNAKNSLYLQMNSLRAEDTAVYYCARFPTVVAARYPMDYWGQGTLVTVSS
VL: DIQMTQSPSSLSASVGDRVTITCRASQDISNYLNWYQQKPGKAPKLLIYFTSRLHSGVPSRFSGSGSGTDYTLTISSLQPEDFATYYCQQGNTLPYTFGQGTKLEIKR
notes: as for B7
Take B9: in experiment [2], the “IC50 (ng/ml), inhibition of IL-4-induced TF-1 cell proliferation” value stood at 156 ng/mL. In addition, in the experiment with hIL-4R alpha-ECD-Flag, the Kd is 526 pM, the koff was 0.00021 s⁻¹ and the kon amounted to 398000 M⁻¹ s⁻¹.

B10: humanized anti-hIL-4R alpha monoclonal antibody 131-Hu (antibody, human IgG4 S228P, kappa, V domains shown)
VH: B9 VH with A49S, N52S, K57T, H60Y, F99I, P100S, A105K, P108A
VL: B9 VL with F50Y, Y71F, F83I, Q90E, G91V, T93M, Y96F, L104V
notes: as for B7
In the case of B10, the “IC50 (ng/ml), inhibition of IL-4-induced TF-1 cell proliferation” value in experiment [2] came to 90.6 ng/mL. Moreover, in the experiment with hIL-4R alpha-ECD-Flag, the Kd was determined as 330 pM, the koff came out at 0.000111 s⁻¹ and the kon worked out at 335000 M⁻¹ s⁻¹.

B11: humanized anti-hIL-4R alpha monoclonal antibody 136-Hu (antibody, human IgG4 S228P, kappa, V domains shown)
VH: B9 VH with A49S, N52S, S56T, K57T, H60Y, F99I, P100S, A105K, P108A
VL: B9 VL with F50Y, Y71F, F83I, G91I, T93A, Y96F
notes: as for B7
As for B11, the “IC50 (ng/ml), inhibition of IL-4-induced TF-1 cell proliferation” value in experiment [2] amounted to 84.3 ng/mL. In the experiment with hIL-4R alpha-ECD-Flag, this molecule had a Kd of 154 pM, an off-rate constant (koff) of 9.8e-05 s⁻¹ and a kon of 635000 M⁻¹ s⁻¹.

Source of the values: US20230203172A1 (SHANGHAI MABGEEK BIOTECH, published 2023).
